Consider one molecule from patent US20110223630A1, “METHOD FOR SCREENING FOR COMPOUNDS THAT INHIBIT NEURODEGENERATION” (priority 2008, published 2011).

Experiment in all cases: Cell-based AP binding assay on transfected COS-1 cells
In experiment [1] the target is T1, p75NTR (Homo sapiens, UniProt P08138).
T1 construct: expressed in transfected cells; host or cells: COS-1
T1 sequence (P08138 29-427): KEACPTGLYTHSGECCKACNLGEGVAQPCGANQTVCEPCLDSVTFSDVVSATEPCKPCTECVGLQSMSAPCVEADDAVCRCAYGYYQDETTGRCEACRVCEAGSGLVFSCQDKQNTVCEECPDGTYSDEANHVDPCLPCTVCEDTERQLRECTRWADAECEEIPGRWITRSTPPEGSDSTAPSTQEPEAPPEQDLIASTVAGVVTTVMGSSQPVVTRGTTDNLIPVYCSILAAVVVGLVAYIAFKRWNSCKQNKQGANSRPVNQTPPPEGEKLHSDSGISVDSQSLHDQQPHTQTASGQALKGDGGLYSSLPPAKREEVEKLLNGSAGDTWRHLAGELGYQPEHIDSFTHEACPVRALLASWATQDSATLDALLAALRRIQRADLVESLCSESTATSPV
The conditions noted are these: same conditions as APP. How it is done:
(§1) The materials and methods used to generate the data shown in this figure are as follows. To test whether APP directly interacts with DR6 extracellular domain, a cell-based A binding assay was carried out (FIG. 14B). To generate DR6 ectodomain-A fusion protein (DR6-AP), COS-1 cells cultured in DMEM/10% FBS (Gibco) medium were transfected with 15 microgram of DR6-AP fusion expression construct using FuGene transfection reagent (Roche) according to the manufacturer protocol. Twelve hours post-transfection, COS-1 cell medium was changed to OPTI-MEM (Invitrogen). Forty-eight hours post-transfection, COS-1 cell conditioned medium containing DR6-AP proteins was collected and filtered. The amount of DR6-AP proteins in the medium was quantified according to the following procedure. 100 microliters of 2×AP buffer (prepared by adding 100 mg Para-nitrophenyl phosphate (Sigma) and 15 microliter of 1M MgCl2 to 15 ml 2M diethanolamine pH 9.8) was mixed with equal volume of transfected COS cell conditioned medium or control conditioned medium from untransfected COS-1 cells. The color of the reaction was developed over 12-15 minutes, with the O.D. being in the linear range (0.1-1). The volume of reaction was then adjusted by adding 800 microliters of distilled water and the O.D. was measured at 405 nm absorbance wavelength. The concentration in nM was calculated according to the formula (for 100 microliter): C (nM)=O.D.×100×(60/developing time)/30. For the APP AP binding assay, COS-1 cells cultured in DMEM/10% FBS (Gibco) medium in 6-well culture dishes were transfected with 2 microgram of APP expressing vector per well using FuGene transfection reagent (Roche) according to the manufacturer protocol. Two days post-transfection, cells were washed twice with the binding buffer (HBSS, Gibco Cat. No. 14175-095, with 0.2% BSA, 0.1% NaN3, 5 mM CaCl2, 1 mM MgCl2, 20 mM HEPES, pH=7.0). […]

The target in experiment [2] is T2, DR6 receptor (Homo sapiens, UniProt O75509).
T2 construct: expressed in transfected cells; host or cells: COS-1
T2 sequence (O75509 42-655): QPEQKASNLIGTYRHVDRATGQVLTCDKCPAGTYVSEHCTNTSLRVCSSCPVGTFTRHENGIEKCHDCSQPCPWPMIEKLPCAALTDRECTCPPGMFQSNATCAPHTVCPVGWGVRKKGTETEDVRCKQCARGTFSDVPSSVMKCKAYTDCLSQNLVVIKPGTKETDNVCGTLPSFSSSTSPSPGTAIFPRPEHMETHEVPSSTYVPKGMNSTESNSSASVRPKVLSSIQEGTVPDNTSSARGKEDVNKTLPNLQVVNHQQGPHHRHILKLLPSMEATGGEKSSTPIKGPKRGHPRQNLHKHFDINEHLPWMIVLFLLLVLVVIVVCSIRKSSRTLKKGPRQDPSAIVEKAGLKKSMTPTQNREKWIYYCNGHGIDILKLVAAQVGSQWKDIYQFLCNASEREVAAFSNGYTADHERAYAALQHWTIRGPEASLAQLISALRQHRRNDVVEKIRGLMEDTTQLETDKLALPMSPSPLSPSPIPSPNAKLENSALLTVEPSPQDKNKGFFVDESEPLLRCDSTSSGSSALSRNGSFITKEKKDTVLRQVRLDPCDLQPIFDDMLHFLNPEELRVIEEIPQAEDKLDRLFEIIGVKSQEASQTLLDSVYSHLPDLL
The conditions noted are these: same conditions as APP. How it is done: as §1

For experiment [3], the target named is T3, APP (Homo sapiens, UniProt P05067).
T3 construct: expressed in transfected cells; host or cells: COS-1
T3 sequence (P05067 18-770): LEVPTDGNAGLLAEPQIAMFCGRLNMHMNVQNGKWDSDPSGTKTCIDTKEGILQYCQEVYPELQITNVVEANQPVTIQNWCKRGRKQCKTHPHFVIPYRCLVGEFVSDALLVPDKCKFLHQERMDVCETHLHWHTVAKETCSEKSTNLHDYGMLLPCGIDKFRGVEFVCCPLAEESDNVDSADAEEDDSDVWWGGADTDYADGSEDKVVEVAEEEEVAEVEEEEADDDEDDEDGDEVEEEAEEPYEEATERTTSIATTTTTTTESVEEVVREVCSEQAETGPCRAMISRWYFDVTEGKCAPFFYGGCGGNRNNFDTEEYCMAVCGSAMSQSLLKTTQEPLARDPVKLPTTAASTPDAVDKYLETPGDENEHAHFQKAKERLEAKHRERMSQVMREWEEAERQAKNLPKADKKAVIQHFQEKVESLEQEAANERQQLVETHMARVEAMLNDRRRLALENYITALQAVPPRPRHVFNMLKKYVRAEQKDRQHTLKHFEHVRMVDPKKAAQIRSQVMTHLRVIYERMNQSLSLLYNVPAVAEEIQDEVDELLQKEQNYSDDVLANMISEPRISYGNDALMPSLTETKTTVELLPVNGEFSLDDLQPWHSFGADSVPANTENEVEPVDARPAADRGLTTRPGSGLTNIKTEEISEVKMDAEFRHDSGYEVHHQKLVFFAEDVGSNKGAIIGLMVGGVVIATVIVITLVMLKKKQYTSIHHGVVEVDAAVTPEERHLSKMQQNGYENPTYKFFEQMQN
The conditions noted are these: DR6-AP conditioned medium 1:1 with binding buffer, 90 minutes. The method, then: as §1

B1: DR6-AP: mouse DR6 ectodomain fused to human placental alkaline phosphatase (protein)
chain: QPEQKTLSLPGTYRHVDRTTGQVLTCDKCPAGTYVSEHCTNMSLRVCSSCPAGTFTRHENGIERCHDCSQPCPWPMIERLPCAALTDRECICPPGMYQSNGTCAPHTVCPVGWGVRKKGTENEDVRCKQCARGTFSDVPSSVMKCKAHTDCLGQNLEVVKPGTKETDNVCGMRLFFSSTNPPSSGTVTFSHPEHMESHDVPSSTYEPQGMNSTDSNSTASVRTKVPSGIEEGTVPDNTSSTSGKEGTNRTLPNPPQVTHQQAPHHRHILKLLPSSMEATGEKSSTAIKAPKRGHPRQNAHKHFDINEH
modifications: left off: large carriers
notes: mouse DR6 ectodomain fused to human placental alkaline phosphatase
Consider B1, for which the “binding of DR6 ectodomain-AP to p75NTR expressing cells” value in experiment [1] is given as “does NOT bind”. Moreover, in experiment [2], the “binding of DR6 ectodomain-AP to DR6 receptor expressing cells” value was “does NOT bind”. Moreover, the “binding of DR6 ectodomain-AP to APP expressing COS cells” value in experiment [3] is given as “binds APP expressed by cultured cells”.
